This passage reports duration of individual binding events (at 10 nM Gal4-VP16^649) results from article PMC11661148.

The test has as its target Gal4-SNAP-VP16 labeled with SNAP-Surface-649 (S. cerevisiae | herpes simplex virus) (UniProt P04386). Nature of the test: colocalization single-molecule spectroscopy.

Regarding “Mediator complex with Med7-HA-SNAP labeled with SNAP-Surface-549 (from UniProt Q08278 1-222)”, the duration of individual binding events (at 10 nM Gal4-VP16^649) is 1 s.
